Patent US7547676B2, “Antagonist peptides to the C5A chemotactic function of vitamin D binding protein” (The Research Foundation of State University of New York, priority 2004, dated 2009)

Tests used:
[1] = tested on: differentiated HL-60 cells; experiment: Ligand-induced calcium mobilization (Fluo-3 AM) in differentiated HL-60 cells; type: cell-based, Human; settings: untreated cells, DBP and C5a added simultaneously
[2] = target: T1, DBP immobilized on a Biacore sensor chip (Homo sapiens, UniProt P02774); experiment: Biacore surface plasmon resonance: U937-C5aR cell binding to immobilized DBP
T1 construct: DBP was purified from human plasma; purchased Biodesign International; host or cells: human plasma
T1 sequence (P02774 17-474): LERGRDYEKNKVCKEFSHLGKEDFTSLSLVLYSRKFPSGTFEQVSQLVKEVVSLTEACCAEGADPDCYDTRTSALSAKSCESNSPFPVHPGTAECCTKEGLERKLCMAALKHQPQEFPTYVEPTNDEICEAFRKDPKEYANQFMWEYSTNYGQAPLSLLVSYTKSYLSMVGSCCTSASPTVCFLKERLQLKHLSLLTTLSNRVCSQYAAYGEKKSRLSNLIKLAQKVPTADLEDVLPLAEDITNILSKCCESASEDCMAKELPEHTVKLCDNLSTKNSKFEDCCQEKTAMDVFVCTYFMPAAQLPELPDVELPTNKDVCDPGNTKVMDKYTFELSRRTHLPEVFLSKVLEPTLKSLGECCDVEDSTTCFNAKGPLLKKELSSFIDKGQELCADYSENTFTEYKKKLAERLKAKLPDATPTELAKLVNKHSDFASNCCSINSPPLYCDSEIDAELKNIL
Protocol: FIG. 8A and FIG. 8B show immobilization of DBP on a Biacore surface plasmon resonance sensor chip CM5. Purified DBP in HBSS (5 μM) was coupled to the sensor chip. Coupling was detected using 5 μg/ml affinity-purified anti-DBP (FIG. 8A). Different concentrations of U937-C5aR cells in HBSS were injected into the flow cell and allowed to interact with the immobilized DBP (FIG. 8B). Data is expressed as response units of the molecular interaction on the sensor chip.
FIGS. 9A to 9C show the effect of pretreating U937-C5aR cells with purified DBP or DBP peptides on the binding to DBP immobilized on a Biacore sensor chip. FIG. 9A: 10^6 cells/ml in HBSS were not treated (control), pretreated with 50 nM DBP, 0.5 μM DBP peptide 1 (p1) or DBP peptide 2 (p2). FIG. 9B: DBP peptide 1 immobilized to the Biacore sensor chip. FIG. 9C: DBP peptide 2 immobilized to the Biacore sensor chip. Data is expressed as response units of the molecular interaction on the sensor chip.
U937-C5aR cells (10^6 cells/ml in HBSS) were pretreated with a 25 μg/ml control IgG, 50 nM purified DBP or 25 μg/ml affinity-purified anti-CD44 and then allowed to interact with DBP immobilized on a Biacore sensor chip. Data is expressed as response units of the molecular interaction on the sensor chip.
According to the present invention, the interaction of an immobilized ligand, e.g., immobilized DBP, binding to cells can be measure by any established technology available in the art, e.g., by surface plasmon resonance (SPR) or Biacore technology. For example, in the present invention, the binding of U937-C5aR cells to immobilized DBP were examined by Biacore technology, the result of which is used to further determine if the DBP peptides generated in the present invention can alter the interaction U937-C5aR cells and DBP. […] To investigate further the effect of DBP peptides on cell binding, peptide 1 (FIG. 9B) and peptide 2 (FIG. 9C) were immobilized to Biacore sensor chips. […] Finally, the present invention also identifies that CD44 on the cell surface binds DBP and can, in part, mediate the C5a chemotactic cofactor effect of DBP (McVoy and Kew, J. Immunol. 175:4754, 2005). Therefore, using Biacore technology the present invention addresses the effect of blocking CD44 on U937-C5aR binding to immobilized DBP (FIG. 10). In the present invention, U937-C5aR cells were pretreated with either an irrelevant goat IgG (negative control), purified soluble DBP (positive control) or affinity-purified goat anti-CD44. […] These Biacore experiments have provided a powerful quantitative tool to investigate the cell binding region on DBP and examine the effects on DBP peptides on this interaction.

[3] = tested on: differentiated HL-60 cells; experiment: Chemotaxis assay, differentiated HL-60 cells responding to C5a, C5a plus DBP or ZAS; type: cell-based, Human; settings: differentiated HL-60 cells; for enhancement of C5a-mediated chemotaxis (net cell movement): 100 pM C5a (FIG. 1: 25-200 pM) plus 50 nM of indicated DBP, 60 min at 37° C
Protocol: Cells (6×10^6/ml) were resuspended in chemotaxis buffer and treated either with chemotaxis buffer (control), 1 μM of peptide 1 (130-152), or 1 μM of peptide 2 (150-172) for 30 min at room temperature. The chemotactic response of differentiated HL-60 cells to 100 pM C5a alone, C5a plus 50 nM full-length natural DBP or 1% zymosan-activated serum (ZAS) was measured for 60 minutes at 37° C. Numbers represent net cell movement in 60 min, mean±SEM of 3 experiments.
Cells and cell culture: Human promyelocytic cell line HL-60 was obtained from ATCC (Rockville, Md.) and cultured in RPMI 1640 medium supplemented with 10% FBS. Differentiation of HL-60 cells was initiated with 250 μM Bt2cAMP for 48 hours.
Chemotaxis assay. Chemotaxis was performed as described previously (see Kew, R. R. et al., J. Leukoc. Biol. 58, 55-58 (1995)). In brief, 35 μl of C5a (0.01 to 1 nM) in the chemotaxis buffer (HBSS with 1% BSA, 10 mM HEPES) were placed in duplicate in the lower chamber of a 48-well chamber (Neuroprobe, Md.). The lower compartments were covered with a 5 μm pore cellulose nitrate filter and then 50 μl of the cell suspension (2.5×10^5/well) was pipetted into the upper compartments. The chemotactic chamber was incubated for 1 hour at 37° C. in a humidified incubator with 5% CO2. Following incubation, the filter was fixed, stained and mounted on a microscope slide. Cell movement was measured as the distance in microns that the leading front of the cells had migrated into the filter (see Zigmond, S. et al., J. Exp. Med. 137, 387 (1973)).

B1: DBP: Purified human DBP obtained from Biodesign International (protein)
chain: LERGRDYEKNKVCKEFSHLGKEDFTSLSLVLYSRKFPSGTFEQVSQLVKEVVSLTEACCAEGADPDCYDTRTSALSAKSCESNSPFPVHPGTAECCTKEGLERKLCMAALKHQPQEFPTYVEPTNDEICEAFRKDPKEYANQFMWEYSTNYGQAPLSLLVSYTKSYLSMVGSCCTSASPTVCFLKERLQLKHLSLLTTLSNRVCSQYAAYGEKKSRLSNLIKLAQKVPTADLEDVLPLAEDITNILSKCCESASEDCMAKELPEHTVKLCDNLSTKNSKFEDCCQEKTAMDVFVCTYFMPAAQLPELPDVELPTNKDVCDPGNTKVMDKYTFELSRRTHLPEVFLSKVLEPTLKSLGECCDVEDSTTCFNAKGPLLKKELSSFIDKGQELCADYSENTFTEYKKKLAERLKAKLPDATPTELAKLVNKHSDFASNCCSINSPPLYCDSEIDAELKNIL
- calcium influx in response to C5a [1]: did not show augmented calcium influx
- inhibition of U937-C5aR cell binding to the DBP chip ([2]; FIG. 9A, 10^6 cells/ml pretreated with 50 nM DBP or 0.5 μM DBP peptide): almost completely blocked
- inhibition of U937-C5aR binding to immobilized DBP ([2]; FIG. 10, cells pretreated with 50 nM purified DBP or 25 μg/ml anti-CD44): completely blocks binding
- enhancement of C5a-mediated chemotaxis (net cell movement) ([3]; listed as natural DBP): significantly enhanced
- enhancement of C5a-mediated chemotaxis (net cell movement) ([3]; listed as purified natural DBP): significantly enhanced movement to C5a
- response of cells treated with DBP alone ([3]; no C5a, chemotaxis and Ca2+ flux): no response
